What was measured:
SEC = target: the molecule itself; assay: SEC
native gel or EMSA = target: the molecule itself; assay: native gel or EMSA
Vts1-SNAP (full length) [1] = target: T1, Vts1-SNAP (full length) (UniProt Q08831 1-523); assay: fluorescence microscopy co-localization
T1 sequence: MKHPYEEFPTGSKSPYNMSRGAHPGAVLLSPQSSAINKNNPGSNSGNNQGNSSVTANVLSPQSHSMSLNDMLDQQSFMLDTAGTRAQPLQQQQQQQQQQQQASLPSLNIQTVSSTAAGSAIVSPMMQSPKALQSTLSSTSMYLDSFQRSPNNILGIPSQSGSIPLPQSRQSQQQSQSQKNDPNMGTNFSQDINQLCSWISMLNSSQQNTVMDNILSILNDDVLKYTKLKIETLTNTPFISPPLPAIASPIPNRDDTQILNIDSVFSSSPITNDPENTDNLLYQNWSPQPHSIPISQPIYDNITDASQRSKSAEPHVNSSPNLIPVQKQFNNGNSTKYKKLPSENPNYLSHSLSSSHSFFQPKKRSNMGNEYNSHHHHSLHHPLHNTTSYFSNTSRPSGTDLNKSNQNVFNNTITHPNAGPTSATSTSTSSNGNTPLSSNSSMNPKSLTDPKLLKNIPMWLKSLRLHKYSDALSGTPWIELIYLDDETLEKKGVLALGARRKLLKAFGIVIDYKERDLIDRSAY

Vts1-SNAP (full length) [2] = target: T1, Vts1-SNAP (full length); assay: fluorescence microscopy co-localization; remark: listed apart in the source

B1: full-length Vts1 with a C-terminal SNAP tag (natural protein, S. cerevisiae, UniProt Q08831 1-523, looked up)
chain: MKHPYEEFPTGSKSPYNMSRGAHPGAVLLSPQSSAINKNNPGSNSGNNQGNSSVTANVLSPQSHSMSLNDMLDQQSFMLDTAGTRAQPLQQQQQQQQQQQQASLPSLNIQTVSSTAAGSAIVSPMMQSPKALQSTLSSTSMYLDSFQRSPNNILGIPSQSGSIPLPQSRQSQQQSQSQKNDPNMGTNFSQDINQLCSWISMLNSSQQNTVMDNILSILNDDVLKYTKLKIETLTNTPFISPPLPAIASPIPNRDDTQILNIDSVFSSSPITNDPENTDNLLYQNWSPQPHSIPISQPIYDNITDASQRSKSAEPHVNSSPNLIPVQKQFNNGNSTKYKKLPSENPNYLSHSLSSSHSFFQPKKRSNMGNEYNSHHHHSLHHPLHNTTSYFSNTSRPSGTDLNKSNQNVFNNTITHPNAGPTSATSTSTSSNGNTPLSSNSSMNPKSLTDPKLLKNIPMWLKSLRLHKYSDALSGTPWIELIYLDDETLEKKGVLALGARRKLLKAFGIVIDYKERDLIDRSAY
For B1, which “stoichiometry N” value (SEC) is on record?
The value was 6.

B2: SNAP^549 labeled full-length Vts1 (natural protein, S. cerevisiae, UniProt Q08831 1-523, looked up)
chain: MKHPYEEFPTGSKSPYNMSRGAHPGAVLLSPQSSAINKNNPGSNSGNNQGNSSVTANVLSPQSHSMSLNDMLDQQSFMLDTAGTRAQPLQQQQQQQQQQQQASLPSLNIQTVSSTAAGSAIVSPMMQSPKALQSTLSSTSMYLDSFQRSPNNILGIPSQSGSIPLPQSRQSQQQSQSQKNDPNMGTNFSQDINQLCSWISMLNSSQQNTVMDNILSILNDDVLKYTKLKIETLTNTPFISPPLPAIASPIPNRDDTQILNIDSVFSSSPITNDPENTDNLLYQNWSPQPHSIPISQPIYDNITDASQRSKSAEPHVNSSPNLIPVQKQFNNGNSTKYKKLPSENPNYLSHSLSSSHSFFQPKKRSNMGNEYNSHHHHSLHHPLHNTTSYFSNTSRPSGTDLNKSNQNVFNNTITHPNAGPTSATSTSTSSNGNTPLSSNSSMNPKSLTDPKLLKNIPMWLKSLRLHKYSDALSGTPWIELIYLDDETLEKKGVLALGARRKLLKAFGIVIDYKERDLIDRSAY
modifications: SNAP-Surface 549 dye on the SNAP tag
Does B2 bind (native gel or EMSA)?
Result: binds

B3: SRE+ RNA (structured_RNA)
RNA: UAAUAAUCAGCUGGCCUGAUUAGUC
Does B3 bind (Vts1-SNAP (full length) [1])?
Result: binds

B4: SRE- RNA (permuted SRE) (structured_RNA)
RNA: UAAUAAUCAGGUCGCCUGAUUAGUC
For B4, which binding signal (Vts1-SNAP (full length) [2]) is on record?
The binding signal was > 5 fold lower co-localized signal than SRE+.
